Non-standard residues stand in square brackets, D forms with d. No end group written: not given here.
Experiments:
Aβ(1-42) oligomers = molecular target: T1, Aβ(1-42) oligomers (Homo sapiens, UniProt P05067); assay: Density gradient centrifugation combined with RP-HPLC: effect of active ingredient on size distribution of Aβ(1-42) aggregates; type: biochemical; details: for quantity of Aβ oligomers in fractions 4 to 6: co-incubation 40 min, vs control without active ingredient
T1 construct: 1 mg of lyophilized Aβ(1-42) (Bachem, Heidelberg); purchased Bachem, Heidelberg
Procedure: For the following examples of embodiments, only one ultracentrifuge and one HPLC system having a suitable separating column and a UV detector were required. In order to determine the reduction of the Aβ oligomer proportion in an aggregate mixture, pretreated and dried Aβ(1-42) peptide was dissolved in buffer and incubated until the greatest possible Aβ oligomer proportion was obtained. The active ingredient to be analyzed was then added to this oligomer-enriched sample.
1 mg of lyophilized Aβ(1-42) (Bachem, Heidelberg) was incubated, after being removed from the freezer, for 10 to 30 min at room temperature (RT) in order to equalize the temperature of the peptide pellet and of the surrounding environment and thus to avoid moisture condensing from the air. Thereafter, the Aβ peptide was dissolved in HFIP (1,1,1,3,3,3-hexafluoro-2-propanol) (Sigma-Aldrich, Taufkirchen) in a concentration of 1 mg/700 μl and incubated overnight at RT with shaking until full dissolution was achieved, in order to ensure that the Aβ(1-42) exists entirely as monomers at this point in time. The Aβ(1-42) was then aliquoted in an amount of 36 μg per Eppendorf vessel. To remove the HFIP, the aliquots were left to stand open under the extractor for approximately 30 min. The rotational vacuum concentrator (rotational vacuum concentrator RVC 2-18, Christ, Mainz-Mombach) was pre-cooled for approximately 30 min. The Aβ(1-42) aliquots were then dried for a further 30 min in the rotational vacuum concentrator so that the last HFIP residues could also evaporate off. The aliquoted, dried Aβ(1-42) was stored at −20° C. until use.
Prior to the experiment, one Aβ(1-42) aliquot was dissolved to 80 μM in 100 μl of 10 mM NaH2PO4/Na2HPO4 buffer (Sigma-Aldrich, Taufkirchen), pH 7.4 and incubated at RT for 6 h with shaking. The incubation time of 6 h was optimized for this specific Aβ from this specific company in order to ensure that the largest possible proportion of the Aβ exists as oligomers, so as to be able to measure the reduction thereof as unambiguously as possible. For other Aβ peptides from other manufacturers, the incubation time may vary and should/can be adapted accordingly.
Thereafter, the active ingredient candidate to be analyzed was added in a quantity of 10 or 20 μM. The co-incubation of the Aβ/active ingredient solution took place for 40 min at RT with continuous shaking. When no active ingredient was added (control), the Aβ solution was treated in the same way.
The samples were then layered onto a pre-formed density gradient (see Table 1). The gradient material used consisted of a 60% strength (w/v) iodixanol solution named Optiprep™ (Axis-Shield, Oslo, Norway). It is a dimeric compound of iohexol having the systematic name 5,5-[(2-hydroxy-1,3-propanediyl)-bis(acetylimino)]bis-[N,N′-bis(2,3-hydroxypropyl)-2,4,6-triiodobenzenedicarboxamide]. […]
The non-linear density gradient was centrifuged at 4° C. and 259,000×g in a TLS-55 swing-out rotor (Beckman-Coulter, Palo Alto, USA) for 3 h in a TL 100 ultracentrifuge (Beckman-Coulter, Palo Alto, USA). The density gradient is measured by refractometric determination of the iodixanol concentration in the individual fractions. An estimate of the size of sedimented protein particles based on the position in the gradient at the end of the centrifugation takes place on the basis of a calibration using marker proteins of known size and shape, which were analyzed under identical centrifugation conditions on the gradient. […]

transgenic AD mice = details: oral administration with drinking water; cited from earlier work
Aβ oligomers = details: according to what is presently known; cited from earlier work
Sequence of Aβ oligomers (P05067 672-711 limits assumed): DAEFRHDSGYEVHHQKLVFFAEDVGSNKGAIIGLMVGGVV

T1 sequence (P05067 672-713): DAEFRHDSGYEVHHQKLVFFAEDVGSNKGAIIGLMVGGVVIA

Substance	quantity of Aβ oligomers in fractions 4 to 6 (Aβ(1-42) oligomers; 20 μM D3, 80 μM Aβ(1-42) pre-incubated 6 h)	proportion of large aggregates in fractions 11 to 14 (Aβ(1-42) oligomers; 20 μM D3, vs control without active ingredient)	cognitive capabilities of treated transgenic AD mice (transgenic AD mice)	plaques in treated transgenic AD mice (transgenic AD mice)	effect on toxic Aβ oligomers (conversion into non-toxic, non-amyloidogenic, ThT-negative amorphous aggregates) (Aβ oligomers)	quantity of Aβ oligomers in fractions 4 to 6 (Aβ(1-42) oligomers; 10 μM D3D3, 80 μM Aβ(1-42) pre-incubated 6 h)	proportion of large aggregates in fractions 11 to 14 (Aβ(1-42) oligomers; 10 μM D3D3, vs control without active ingredient)	effect in eliminating oligomeric Aβ species compared with D3 (Aβ(1-42) oligomers; 10 μM D3D3 versus 20 μM D3)
D3: D-enantiomeric peptide identified by mirror image phage display selection against predominantly monomeric Aβ(1-42); SEQ ID NO: 1 ([dR][dP][dR][dT][dR][dL][dH][dT][dH][dR][dN][dR])	reduction in the quantity of oligomers	much greater	significantly improved cognitive capabilities	considerably fewer plaques	destroys the particularly toxic Aβ oligomers	–	–	–
D3D3: tandem dimer of the D-peptide D3; SEQ ID NO: 2 ([dR][dP][dR][dT][dR][dL][dH][dT][dH][dR][dN][dR][dR][dP][dR][dT][dR][dL][dH][dT][dH][dR][dN][dR])	–	–	–	–	–	reduction in the quantity of oligomers	much greater	much more pronounced effect

From US10088487B2, “Method for the quantitative characterization of amyloid and/or aggregating peptides and/or proteins in a sample” (Forschungszentrum Juelich GmbH, priority 2013, dated 2018)
